According to paper PMC10248533, “Structures of Get3d reveal a distinct architecture associated with the emergence of photosynthesis” (The Journal of Biological Chemistry, 2023):

What was measured:
Experiment in all cases: EnzChek phosphate release assay (PNP-coupled, A360)
[1] = substrate: Nc1ncnc2c1ncn2[C@@H]1O[C@H](COP(=O)(O)OP(=O)(O)OP(=O)(O)O)[C@@H](O)[C@H]1O; assay type: biochemical, Arabidopsis thaliana; conditions: 37 °C, pH 7.5, 5 mM MgCl2, 15 μM enzyme, 0-2 mM ATP
[2] = substrate: Nc1ncnc2c1ncn2[C@@H]1O[C@H](COP(=O)(O)OP(=O)(O)OP(=O)(O)O)[C@@H](O)[C@H]1O; assay type: biochemical, Nostoc sp. PCC 7120 = FACHB-418; conditions: 37 °C, pH 7.5, 5 mM MgCl2, 15 μM enzyme, 0-2 mM ATP
[3] = substrate: Nc1ncnc2c1ncn2[C@@H]1O[C@H](COP(=O)(O)OP(=O)(O)OP(=O)(O)O)[C@@H](O)[C@H]1O; assay type: biochemical, Saccharomyces cerevisiae; conditions: 37 °C, pH 7.5, 5 mM MgCl2, 2.5 μM enzyme, 0-2 mM ATP

B1: AtGet3d (Arabidopsis thaliana) (protein)
chain: TKFVTFLGKGGSGKTTAAVFAAQHYALAGLSTCLVIHNQDPSAEFLLGSKIGTSPTLINDNLSVIRLETTKMLLEPLKQLKQADARLNMTQGVLEGVVGEELGVLPGMDSIFSMLELERLVGFFRQATRKNHKGKPFDVIIYDGISTEETLRMIGLSSKTRLYAKYLRSLAEKTDLGRLTSPSIMRFVDESMNINSNKSPFDGMTSPAMWDTLERFLETGASAWRDPERFRSFLVMDPNNPMSVKAALRYWGCTVQAGSHVSGAFAISSSHLTSQIPKADFVPLPFASASVPFTITGLDWDKILLDQANSSIRELLSETVSHGTSLTQTVMFDTAKKLVTLFMPGFEKSEIKLYQYRGGSELLIEAGDQRRVIHLPSQIQGKVGGAKFVDRSLIVTMR
notes: delta1-57 (chloroplast transit peptide removed), expressed in E. coli; ATPase assay: N-terminal His6-3C tag; crystal: pET22b(+) NdeI-XhoI construct; homodimer
Km [1]: 351 ± 4 µM | kcat [1]: 0.0183 ± 0.00017 s⁻¹

B2: NosGet3d (Nostoc sp. PCC 7120 = FACHB-418) (protein)
chain: MALILTFLGKSGVARTKIAIAAAKLLASQGKRVLLAGLAEPVLPLLLEQTLTPDPQQIAPNLEVVQFQSSVLLERNWEEVKKLEAQYLRTPIIKEVYGQELVVLPGMDSALALNAIREYDASGKYDAIVYDGTGDAFTLRMLGLPESLSWYVRRFRQLFVNSDLGKTIAESPLIQPLISSFFNVNWTADNFAQPTNQVNNFLDKGKEALADPKRVAAFLVTTADPLEVVSVRYLWGSAQQIGLTIGGVIQVSSQTEGDLSAEFTPLSVTVVPDVTKGDWQPLIDALPNFVEQAEQAPKPITIDTHNRQVRLFLPGFDKKQVKLTQYGPEVTVEAGDQRRNIFLPPALSGRPITGAKFQNNYLIISF
notes: N-terminal His6-TEV tag (pET33b), expressed in E. coli; homodimer
Km [2]: 353 ± 10 µM | kcat [2]: 0.00467 ± 0.00017 s⁻¹

B3: ScGet3 (yeast Get3) (Saccharomyces cerevisiae S288C) (protein)
chain: MDLTVEPNLHSLITSTTHKWIFVGGKGGVGKTTSSCSIAIQMALSQPNKQFLLISTDPAHNLSDAFGEKFGKDARKVTGMNNLSCMEIDPSAALKDMNDMAVSRANNNGSDGQGDDLGSLLQGGALADLTGSIPGIDEALSFMEVMKHIKRQEQGEGETFDTVIFDTAPTGHTLRFLQLPNTLSKLLEKFGEITNKLGPMLNSFMGAGNVDISGKLNELKANVETIRQQFTDPDLTTFVCVCISEFLSLYETERLIQELISYDMDVNSIIVNQLLFAENDQEHNCKRCQARWKMQKKYLDQIDELYEDFHVVKMPLCAGEIRGLNNLTKFSQFLNKEYNPITDGKVIYELEDKE
notes: N-terminal His6-TEV tag (pET33b), expressed in E. coli
Km [3]: 48 ± 2 µM | kcat [3]: 0.045 ± 0.00033 s⁻¹
